We go through one molecule from patent US20220259605A1 (OXFORD UNIVERSITY INNOVATION, published 2022).

This test concerns the target T1, human CEACAM5 protein (SinoBiological) (human, UniProt P06731 35-685).
T1 construct: also called human CEA protein; carcinoembryonic antigen
T1 sequence: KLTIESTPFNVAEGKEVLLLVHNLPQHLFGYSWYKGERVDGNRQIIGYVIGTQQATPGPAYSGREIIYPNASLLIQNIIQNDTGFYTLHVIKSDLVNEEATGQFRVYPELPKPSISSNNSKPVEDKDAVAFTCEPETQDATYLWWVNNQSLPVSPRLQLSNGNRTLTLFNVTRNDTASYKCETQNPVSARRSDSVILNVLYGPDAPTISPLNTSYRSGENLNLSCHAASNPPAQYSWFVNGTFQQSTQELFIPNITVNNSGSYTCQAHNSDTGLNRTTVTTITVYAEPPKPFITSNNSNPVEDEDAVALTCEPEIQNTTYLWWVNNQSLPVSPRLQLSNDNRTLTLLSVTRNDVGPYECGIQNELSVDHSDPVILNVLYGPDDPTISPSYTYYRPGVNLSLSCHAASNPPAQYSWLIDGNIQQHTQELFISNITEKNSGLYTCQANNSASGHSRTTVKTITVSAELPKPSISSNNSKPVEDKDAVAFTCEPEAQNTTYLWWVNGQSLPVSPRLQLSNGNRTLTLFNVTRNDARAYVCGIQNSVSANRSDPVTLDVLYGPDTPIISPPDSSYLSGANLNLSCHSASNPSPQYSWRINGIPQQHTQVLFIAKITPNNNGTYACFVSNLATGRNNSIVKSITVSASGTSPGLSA
Briefly: biological agglutination test.

B1: C43 anti-CEA nanobody, surface-displayed on E. coli through the pNV intimin display system (VHH)
VHH: EVQLVESGGGLVQAGGSLTLSCTSSTLTFTPYRMGWYRQTPGKQRDLVADISPGDGSTKNYAGFAQGRFTISRDNIKNTVYLQMNDLKPEDTAVYYCNTYVAFVGRARTWGQGTQVTVSS
notes: domain: β-intimin domain; also called pNVC43; pNVC43_sfGFP
With B1, the binding result was “binds”.
